Drawing on article PMC3282170 (Febs Letters, 2012), this text covers Kd for two molecules.

For orientation: Kd means the concentration at which binding is half-saturated. High values mean weaker binding, low ones tighter binding.

Assay [1] has as its target Human γD-crystallin I4F/V76D, bimane-labeled at cysteine 111 (human) (UniProt P07320). Put plainly: fluorescence polarisation. For orientation: Fluorescence polarisation rises when a labelled molecule tumbles more slowly, as on binding a larger partner.
Assay [2] addresses T1, triply phosphorylated analog (S19D/S45D/S59D) of αB-crystallin (UniProt P02511 1-175, S19D | S45D | S59D).
T1 sequence (looked up): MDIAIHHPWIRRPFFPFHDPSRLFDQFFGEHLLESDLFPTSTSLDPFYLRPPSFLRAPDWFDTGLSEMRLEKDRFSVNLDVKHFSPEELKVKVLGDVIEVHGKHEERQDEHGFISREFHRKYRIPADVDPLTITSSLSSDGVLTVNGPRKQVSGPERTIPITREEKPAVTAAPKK
Briefly: fluorescence polarisation.

For the molecule “αB-crystallin (from UniProt P02511 1-175) (natural protein)”, the dissociation constant Kd in assay [1] is greater than 300 µM.

B1: Human γD-crystallin I4F/V76D, bimane-labeled at cysteine 111 (natural protein)
chain: GKFTLYEDRGFQGRHYECSSDHPNLQPYLSRCNSARVDSGCWMLYEQPNYSGLQYFLRRGDYADHQQWMGLSDSDRSCRLIPHSGSHRIRLYEREDYRGQMIEFTEDCSCLQDRFRFNEIHSLNVLEGSWVLYELSNYRGRQYLLMPGDYRRYQDWGATNARVGSLRRVIDFS
modifications: bimane label at cysteine C111
In assay [2], B1 came in with a Kd of 27 ± 6 µM.
